Like-named read-outs stand apart in the source and are kept apart here.
Key:
Assay in all cases: cell-based or functional assay
[1] = target: HA/V5 double tagged endogenous human FPRL2 (human)
[2] = target: HA/V5 double-tagged endogenous human FPR (human) (UniProt P21462)
[3] = target: HA/V5 double-tagged endogenous human FPRL1 (human) (UniProt P25090)
[4] = target: T1, HA/V5 double tagged endogenous human FPRL2 (human)
T1 chain: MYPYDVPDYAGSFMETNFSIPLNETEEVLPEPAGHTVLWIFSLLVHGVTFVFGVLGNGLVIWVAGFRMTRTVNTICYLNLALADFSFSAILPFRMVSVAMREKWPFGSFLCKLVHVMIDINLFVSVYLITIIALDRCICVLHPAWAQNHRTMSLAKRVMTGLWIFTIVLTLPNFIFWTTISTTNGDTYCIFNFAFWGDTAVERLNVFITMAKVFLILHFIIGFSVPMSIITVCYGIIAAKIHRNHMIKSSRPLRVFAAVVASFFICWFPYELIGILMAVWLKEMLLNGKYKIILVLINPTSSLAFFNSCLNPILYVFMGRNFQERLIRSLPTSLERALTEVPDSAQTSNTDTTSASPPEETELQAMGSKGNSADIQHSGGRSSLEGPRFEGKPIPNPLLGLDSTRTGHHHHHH

Chain of HA/V5 double-tagged endogenous human FPRL1 (human) (P25090 other isoform, or with tags, fused parts or gaps): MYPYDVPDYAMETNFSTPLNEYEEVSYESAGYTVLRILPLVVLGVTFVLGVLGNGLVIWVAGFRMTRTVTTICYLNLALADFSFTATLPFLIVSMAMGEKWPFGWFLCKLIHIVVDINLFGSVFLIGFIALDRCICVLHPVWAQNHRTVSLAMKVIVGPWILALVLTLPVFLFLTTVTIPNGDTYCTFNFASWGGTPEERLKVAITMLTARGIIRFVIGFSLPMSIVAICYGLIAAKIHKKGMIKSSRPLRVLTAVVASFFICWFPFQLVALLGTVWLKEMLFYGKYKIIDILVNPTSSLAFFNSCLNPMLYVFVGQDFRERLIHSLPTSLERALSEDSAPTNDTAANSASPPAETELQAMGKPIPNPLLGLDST
Chain of HA/V5 double-tagged endogenous human FPR (human) (P21462 other isoform, or with tags, fused parts or gaps): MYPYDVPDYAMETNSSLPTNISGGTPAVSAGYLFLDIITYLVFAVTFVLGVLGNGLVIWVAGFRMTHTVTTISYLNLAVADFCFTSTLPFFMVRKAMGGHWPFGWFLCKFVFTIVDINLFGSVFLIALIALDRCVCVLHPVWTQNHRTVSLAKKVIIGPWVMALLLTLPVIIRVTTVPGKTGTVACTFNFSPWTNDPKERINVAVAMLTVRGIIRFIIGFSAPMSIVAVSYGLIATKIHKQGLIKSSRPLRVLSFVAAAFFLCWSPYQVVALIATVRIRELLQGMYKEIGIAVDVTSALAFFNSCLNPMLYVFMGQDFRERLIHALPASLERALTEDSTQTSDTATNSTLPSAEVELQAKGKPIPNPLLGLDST

| Molecule | EC50, [35S]GTPγS binding to membranes of transiently transfected CHO cells [1] [nM] | [35S]GTPγS binding to membranes of transiently transfected CHO cells; highest dose without significant activity [2] [µM] | EC50, [35S]GTPγS binding to membranes of transiently transfected CHO cells [3] [nM] | EC50, [35S]GTPγS binding to membranes of transiently transfected CHO cells [4] [nM] | EC50 of Humanin driven pigment aggregation in melanophore (Gi coupling) [4] [nM] |
| --- | --- | --- | --- | --- | --- |
| [Gly14]-Humanin (peptide) | 72 | > 10 | 1500 | – | – |
| MAPRGFSCLLLLTSEIDLPVKRRA [Humanin] | – | – | – | ~320 | ~239 |
